Patent US6011146A, “Altered major histocompatibility complex (MHC) determinant and methods of using the determinant” (Institut Pasteur, priority 1995, dated 2000)
“And” between values parts separate entries of the source, which are not always exact repeats. Identical values can stand only once.

Columns and labels:
SC-K^d -15 [1] = biological target: T1, SC-K^d -15 (Mus musculus, UniProt P01887+P01902); assay: Direct peptide binding assay, solid phase, with purified 35S-labeled SC-Kd; conditions: for binding of peptide to SC-K^d -15 (in words): direct binding assay
T1 construct: connecting residue 276 of K^d heavy chain to the first residue of β2 -microglobulin through spacers; made in house
T1 sequence (P01902+P01887 with tags, fused parts or gaps): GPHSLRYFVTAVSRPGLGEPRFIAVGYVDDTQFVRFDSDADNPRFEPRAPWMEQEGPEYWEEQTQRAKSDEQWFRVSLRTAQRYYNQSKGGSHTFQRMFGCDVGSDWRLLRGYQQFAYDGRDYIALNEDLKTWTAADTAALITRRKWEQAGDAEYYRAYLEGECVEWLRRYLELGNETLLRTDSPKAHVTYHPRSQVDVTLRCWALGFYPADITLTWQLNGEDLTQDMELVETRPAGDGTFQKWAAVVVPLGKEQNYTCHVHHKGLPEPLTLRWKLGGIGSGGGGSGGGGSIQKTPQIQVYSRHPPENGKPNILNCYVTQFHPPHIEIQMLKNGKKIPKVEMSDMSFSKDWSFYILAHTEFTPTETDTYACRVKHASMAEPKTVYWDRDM
Method: (§1) Direct Peptide Binding Assay. Wells of microtiter plates are pretreated with 100 μl 2.5% glutaraldehyde in distilled water for 2 h at 20° C., washed with distilled water, and coated for 16 h at 4° C. with 100 μl of peptide diluted at 5 μg/ml either in carbonate-bicarbonate buffer, pH 9.6, or in PBS, pH 7.4 or pH 5.0. Remaining free sites are blocked by incubation for 2 h at 20° C. with BSA diluted 1% in PBS containing 0.05% Tween 20 (Tw) and 0.02% sodium azoture. After washing, purified ^125 I-HLA molecules (100 μl containing 1.5×10^5 cpm, 10^-9 M) diluted in PBS containing 1% BSA, 0.05% Tw, 0.02% sodium azoture, 1 mM PMSF, and 10 μg/ml trypsin inhibitor are added and incubated for 20 h at 20° C. After extensive washing, the radioactivity of each well is counted.
(§2) Inhibition Peptide Binding Assay. Concentrations of 0.1-100 μM of competitor peptides are incubated in tubes for 0-3 h at 20° C. with ^125 I-HLA (10^-9 M) diluted in PBS--BSA--Tw containing the protease inhibitors as mentioned above. […] After extensive washing, the radioactivity in each well is counted and the percent of inhibition is calculated.
(§3) COS-1 cells (usually 10^7 cells) were transfected with pSC-K^d -15 DNA, labeled and lysed as above. […] After the final wash in PBS, SC-K^d -15 was eluted from the matrix with an equal volume of 3M thiocyanate for 10 min on ice. After an overnight dialysis in PBS containing 0.1% NP40, 0.05% Tween and 0.2% BSA, SC-K^d -15 was used in direct binding test as below. Its purity was assessed by SDS-PAGE.
Peptides used in this study are described in Choppin et al. (Choppin, J., Martinon, F., Gomard, E., Bahraoui, E., Connan, F., Bouillot, F., and Levy, J.-P, J. Exp. Med., 1990. 172:889 and references therein), except for HLA-Cw3 and HLA-A24 described in Maryanski, J. Ll, Pala, P., Cerottini, J.-C, and Corradin, G., J. Exp. Med. 1988. 167:1391. Binding assays were performed as described in Choppin, J., Martinon, F., Gomard, E., Bahraoui, E., Connan, F., Bouillot, F., and Levy, J.-P, J. Exp. Med., 1990. 172:889. DR3, DRw13, and K^d molecules were also purified and iodinated as in Choppin, J., Martinon, F., Gomard, E., Bahraoui, E., Connan, F., Bouillot, F., and Levy, J.-P, J. Exp. Med., 1990. 172:889.
K^d molecules isolated from the spleen of BALB/c mice were then purified and iodinated. They were purified by affinity chromatography on a 20-8-4 mAb column and compared binding of peptides by the latter and by ^35 S-labeled SC-K^d -15 in the assay of Bouillot et al. (Bouillot, M., Choppin, J., Cornille, F., Martinon, F., Papo, T., Gomard, E., FournieZaluski, M.-C., and Levey, J.-P., Nature 1989. 339:473 and Choppin, J., Martinon, F., Gomard, E., Bahraoui, E., Connan, F., Bouillot, F., and Levy, J.-P, J. Exp. Med., 1990. 172:889).

SC-K^d -15 [2] = biological target: T1, SC-K^d -15; assay: as above; conditions: Table 10 (A), input 10,000 cpm, duplicates
mAb 34-1-2 = assay: Immunoprecipitation of 35S-labeled SC-K^d molecules from transfected COS-1 cell extracts by mAb 34-1-2; assay type: binding
Method: as §3

[3] = biological target: K^d molecules isolated from the spleen of BALB/c mice (mouse) (UniProt P01887)
SC-K^d -15 (mouse) [4] = biological target: SC-K^d -15 (mouse) (UniProt P01887)
SC-K^d -15 (mouse) [5] = biological target: SC-K^d -15 (mouse) (UniProt P01887); assay: direct peptide binding assay, peptide coated at 10 µg/ml pH 9.6, 35S-labeled SC-Kd, input 6000 cpm, no coated peptide 228 and 223, duplicate
[6] = biological target: K^d molecules isolated from the spleen of BALB/c mice (mouse) (UniProt P01887); assay: direct peptide binding assay, peptide coated at 10 µg/ml pH 9.6, 125I-labeled H-2K, input 100000 cpm, no coated peptide 1471 and 1595, duplicate
HLA-DR3 = HLA-DR3 (Homo sapiens, UniProt P01903+P01911); assay: Direct peptide binding assay with purified 125I-labeled HLA-DR3 (positive control)
Method: (§4) Direct Peptide Binding Assay. Wells of microtiter plates are pretreated with 100 μl 2.5% glutaraldehyde in distilled water for 2 h at 20° C., washed with distilled water, […] buffer, pH 9.6, or in PBS, pH 7.4 or pH 5.0. Remaining free sites are blocked by incubation for 2 h at 20° C. with BSA diluted 1% in PBS containing 0.05% Tween 20 (Tw) and 0.02% sodium azoture. […] After extensive washing, the radioactivity of each well is counted.

DRw13 = DRw13 (Homo sapiens, UniProt P01903+P01911); assay: Direct peptide binding assay with purified 125I-labeled HLA-DRw13 (positive control)
Method: as §4

[7] = biological target: T2, K^d molecules isolated from the spleen of BALB/c mice (Mus musculus, UniProt P01902); assay: Direct peptide binding assay with purified 125I-labeled conventional K^d
T2 construct: K^d molecules isolated from the spleen of BALB/c mice; from tissue
T2 sequence (P01902 22-368): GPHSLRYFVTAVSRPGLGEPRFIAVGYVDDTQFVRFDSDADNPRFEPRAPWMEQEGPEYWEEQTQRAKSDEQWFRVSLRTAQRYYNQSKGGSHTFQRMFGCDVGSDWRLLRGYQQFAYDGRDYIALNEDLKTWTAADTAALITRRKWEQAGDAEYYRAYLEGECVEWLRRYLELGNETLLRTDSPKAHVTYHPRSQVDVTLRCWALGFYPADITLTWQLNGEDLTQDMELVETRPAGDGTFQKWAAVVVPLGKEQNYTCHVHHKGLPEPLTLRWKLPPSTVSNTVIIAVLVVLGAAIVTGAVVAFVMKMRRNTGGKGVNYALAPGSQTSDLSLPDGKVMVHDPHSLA
T2 sequence (P01887 21-119 partner): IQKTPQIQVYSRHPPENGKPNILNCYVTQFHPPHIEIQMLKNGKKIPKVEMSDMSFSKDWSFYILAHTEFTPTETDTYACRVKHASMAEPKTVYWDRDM
Method: as §1
as §2, with “calculated. […]” for “calculated.”

SC-K^d -15 (mouse) [8] = biological target: SC-K^d -15 (mouse) (UniProt P01887); assay: direct peptide binding assay, peptide coated at 30 µg/ml pH 9.6, 35S-labeled SC-Kd, input 10,000 cpm, duplicate
HLA-DR3 (human) [9] = assay: direct peptide binding assay, peptide coated at 30 µg/ml pH 9.6, 125I-labeled HLA-DR3, input 200000 cpm, duplicate
HLA-DRw13 (human) [10] = assay: direct peptide binding assay, peptide coated at 30 µg/ml pH 9.6, 125I-labeled HLA-DRw13, input 200000 cpm, duplicate
SC-K^d -15 (mouse) [11] = biological target: SC-K^d -15 (mouse) (UniProt P01887); assay: direct peptide binding assay, peptide coated at 5 µg/ml pH 9.6, 35S-labeled SC-Kd, input 6000 cpm, no coated peptide 228 and 223, duplicate
SC-K^d -15 (mouse) [12] = biological target: SC-K^d -15 (mouse) (UniProt P01887); assay: direct peptide binding assay, peptide coated at 10 µg/ml pH 5, 35S-labeled SC-Kd, input 10,000 cpm, duplicate
HLA-DR3 (human) [13] = assay: direct peptide binding assay, peptide coated at 10 µg/ml pH 5, 125I-labeled HLA-DR3, input 200000 cpm, duplicate
HLA-DRw13 (human) [14] = assay: direct peptide binding assay, peptide coated at 10 µg/ml pH 5, 125I-labeled HLA-DRw13, input 200000 cpm, duplicate
[15] = Table 10 (A), input 200000 cpm, peptide 10 μg/ml, pH 5, duplicates

IRIQRGPGRAFVTIGK [env 312-327] was tested, and the “35S-labeled SC-Kd bound to coated peptide” value (SC-K^d -15 [1]; Table 10 (B), input 6000 cpm, peptide 5 μg/ml, pH 9.6, duplicates) was 390 cpm and 377 cpm, the “binding of peptide to SC-K^d -15 (in words)” value (SC-K^d -15 [1]) was “significant binding” and the “35S-labeled SC-Kd bound to coated peptide” value (SC-K^d -15 [2]; peptide 30 μg/ml, pH 9.6) was 750 cpm and 712 cpm.

With TYQRTRALVTG [NPR 147-158] the “effect of added immunogenic peptide on immunoprecipitation of SC-K^d molecules” value (mAb 34-1-2) was “no effect”.

HLA-Cw3 170-182 (peptide) was tested, and the cpm bound to coated env 312-327 in the presence of the competitor [3] was 15400 cpm and 15800 cpm, the cpm bound to coated env 312-327 in the presence of the competitor (SC-K^d -15 (mouse) [4]) was 367 cpm and 375 cpm and the cpm bound (SC-K^d -15 (mouse) [5]) was 169 cpm and 117 cpm. For the same substance, the cpm bound [6] was 1340 cpm and 1380 cpm.

HLA-A24 170-182 (peptide) was tested, and the cpm bound (SC-K^d -15 (mouse) [5]) was 284 cpm and the cpm bound [6] was 1060 cpm and 1300 cpm.

LFIHFRIGORHSR [vpr 68-80] was tested, and the “35S-labeled SC-Kd bound to coated env 312-327 in presence of the competing peptide” value (SC-K^d -15 [1]; Table 10 (B), competition, env 312-327 bound to plastic + labelled peptide as competitor, input 6000 cpm, duplicates) was 42 cpm and 41 cpm, the “competition with env 312-327 peptide bound to plastic (in words)” value (SC-K^d -15 [1]; competition experiment, SC-K^d) was “competed efficiently” and the “binding of peptide to SC-K^d -15 (in words)” value (SC-K^d -15 [1]) was “significant binding”. The “125I-labeled HLA-DR3 bound to coated peptide” value (HLA-DR3; [15]) was 18582 cpm and 18245 cpm, the “binding of peptide to HLA-DR3 positive control (in words)” value (HLA-DR3; direct binding assay) was “significant binding” and the “125I-labeled HLA-DRw13 bound to coated peptide” value (DRw13; [15]) was 21838 cpm and 20593 cpm. The “binding of peptide to DR213 positive control (in words)” value (DRw13; direct binding assay) was “significant binding”, the “125I-labeled H-2K bound to coated env 312-327 in presence of the competing peptide” value ([7]; Table 10 (B), competition, env 312-327 bound to plastic + labelled peptide as competitor, input 100000 cpm, duplicates) was 359 cpm and 409 cpm and the “competition with env 312-327 peptide bound to plastic (in words)” value ([7]; competition experiment, K^d) was “competed efficiently”. The “35S-labeled SC-Kd bound to coated peptide” value (SC-K^d -15 [2]; peptide 10 μg/ml, pH 5) was 710 cpm and 621 cpm.

For HIV 1 Env. 312-327 (peptide), the cpm bound (SC-K^d -15 (mouse) [8]) was 750 cpm and 712 cpm, the cpm bound (HLA-DR3 (human) [9]) was 3780 cpm and the cpm bound (HLA-DRw13 (human) [10]) was 22600 cpm. For the same substance, the cpm bound (SC-K^d -15 (mouse) [11]) was 390 cpm and 377 cpm.

With HIV 1 Vpr. 68-80 (peptide) the cpm bound to coated env 312-327 in the presence of the competitor [3] was 359 cpm and 409 cpm, the cpm bound to coated env 312-327 in the presence of the competitor (SC-K^d -15 (mouse) [4]) was 42 cpm and 41 cpm and the cpm bound (SC-K^d -15 (mouse) [12]) was 710 cpm and 621 cpm. The cpm bound (HLA-DR3 (human) [13]) was 18600 cpm and 18200 cpm and the cpm bound (HLA-DRw13 (human) [14]) was 21800 cpm and 20600 cpm.

In the case of HIV 1 Nef. 66-80 (peptide), the cpm bound (SC-K^d -15 (mouse) [8]) is reported as 475 cpm and 397 cpm, the cpm bound (HLA-DR3 (human) [9]) is reported as 2320 cpm and 1820 cpm and the cpm bound (HLA-DRw13 (human) [10]) is reported as 1390 cpm and 1290 cpm.
